US20240368259A1 (ONENA MEDICINES S L, published 2024)
Positions count from the first letter of the chain named.

B1: LEFTY1 (recombinant mouse Lefty1 protein, R&D Systems, catalog number 994-LF) (ligand, UniProt Q64280 78-368, looked up)
chain: FSQNLREVAGRFLVSETSTHLLVFGMEQRLPPNSELVQAVLRLFQEPVPRTALRRQKRLSPHSARARVTIEWLRFRDDGSNRTALIDSRLVSIHESGWKAFDVTEAVNFWQQLSRPRQPLLLQVSVQREHLGPGTWSSHKLVRFAAQGTPDGKGQGEPQLELHTLDLKDYGAQGNCDPEAPVTEGTRCCRQEMYLDLQGMKWAENWILEPPGFLTYECVGSCLQLPESLTSRWPFLGPRQCVASEMTSLPMIVSVKEGGRTRPQVVSLPNMRVQTCSCASDGALIPRRLQP
notes: Added to cells at 200 ng/ml (co-IP, SMAD assays)
B2: BMP7 in human breast cancer PDX cells (ligand, UniProt P18075 293-431, looked up)
chain: STGSKQRSQNRSKTPKNQEALRMANVAENSSSDQRQACKKHELYVSFRDLGWQDWIIAPEGYAAYYCEGECAFPLNSYMNATNHAIVQTLVHFINPETVPKPCCAPTQLNAISVLYFDDSSNVILKKYRNMVVRACGCH
B3: BMP7 (R&D Systems 5666-BP) (ligand, mouse, UniProt P23359 292-430, looked up)
chain: B2 chain with S4G, N25S, E97D
B4: SCBT anti-lefty antibody (Santa Cruz Biotechnology, catalog number sc-365845, mAb D6) (antibody, mouse IgG1, kappa)
heavy: QVQLQQSGAELVRPGASVKLSCKALGYTFADYEMHWVRQTPVHGLEWTGSIHPGSGGTAYDQRFKGKATLTADKSSSTAYMELSSLTSEDSAVYYCTFYDLDYWGQGTTLTVSSAKTTPPSVYPLAPGSAAQTNSMVTLGCLVKGYFPEPVTVTWNSGSLSSGVHTFPAVLQSDLYTLSSSVTVPSSTWPSETVTCNVAHPASSTKVDKKIVPRDCGCKPCICTVPEVSSVFIFPPKPKDVLTITLTPKVTCVVVDISKDDPEVQFSWFVDDVEVHTAQTQPREEQFNSTFRSVSELPIMHQDWLNGKEFKCRVNSAAFPAPIEKTISKTKGRPKAPQVYTIPPPKEQMAKDKVSLTCMITDFFPEDITVEWQWNGQPAENYKNTQPIMDTDGSYFVYSKLNVQKSNWEAGNTFTCSVLHEGLHNHHTEKSLSHSPGK
light: DILMTQAAPSISVTPGESVSISCRSSESLLHSNGNTYLYWFLQRPGQSPQLLIYRKSNLASGVPDRFSGSGSGTAFTLRISRVEAEDVGVYYCMQQLEYPLTFGGGTKLELKRADAAPTVSIFPPSSEQLTSGGASVVCFLNNFYPKDINVKWKIDGSERQNGVLNSWTDQDSKDSTYSMSSTLTLTKDEYERHNSYTCEATHKTSTSPIVKSFNRNEC
notes: The ELISA protocol prints the catalog number as sc-36584, the proliferation protocols as sc-365845; also called SCBT antibody; SCBT Ab

Tests used:
[1] = molecular target: T1, BMPR2 (BMP receptor, in mouse fibroblasts and mouse mammary cells) (mouse, UniProt O35607 27-1038); experiment: proximity ligation assay in fibroblasts
T1 construct: whole, on cells; For the co-IP it came from cell lysate; also called BMP Type II receptor
T1 sequence (looked up): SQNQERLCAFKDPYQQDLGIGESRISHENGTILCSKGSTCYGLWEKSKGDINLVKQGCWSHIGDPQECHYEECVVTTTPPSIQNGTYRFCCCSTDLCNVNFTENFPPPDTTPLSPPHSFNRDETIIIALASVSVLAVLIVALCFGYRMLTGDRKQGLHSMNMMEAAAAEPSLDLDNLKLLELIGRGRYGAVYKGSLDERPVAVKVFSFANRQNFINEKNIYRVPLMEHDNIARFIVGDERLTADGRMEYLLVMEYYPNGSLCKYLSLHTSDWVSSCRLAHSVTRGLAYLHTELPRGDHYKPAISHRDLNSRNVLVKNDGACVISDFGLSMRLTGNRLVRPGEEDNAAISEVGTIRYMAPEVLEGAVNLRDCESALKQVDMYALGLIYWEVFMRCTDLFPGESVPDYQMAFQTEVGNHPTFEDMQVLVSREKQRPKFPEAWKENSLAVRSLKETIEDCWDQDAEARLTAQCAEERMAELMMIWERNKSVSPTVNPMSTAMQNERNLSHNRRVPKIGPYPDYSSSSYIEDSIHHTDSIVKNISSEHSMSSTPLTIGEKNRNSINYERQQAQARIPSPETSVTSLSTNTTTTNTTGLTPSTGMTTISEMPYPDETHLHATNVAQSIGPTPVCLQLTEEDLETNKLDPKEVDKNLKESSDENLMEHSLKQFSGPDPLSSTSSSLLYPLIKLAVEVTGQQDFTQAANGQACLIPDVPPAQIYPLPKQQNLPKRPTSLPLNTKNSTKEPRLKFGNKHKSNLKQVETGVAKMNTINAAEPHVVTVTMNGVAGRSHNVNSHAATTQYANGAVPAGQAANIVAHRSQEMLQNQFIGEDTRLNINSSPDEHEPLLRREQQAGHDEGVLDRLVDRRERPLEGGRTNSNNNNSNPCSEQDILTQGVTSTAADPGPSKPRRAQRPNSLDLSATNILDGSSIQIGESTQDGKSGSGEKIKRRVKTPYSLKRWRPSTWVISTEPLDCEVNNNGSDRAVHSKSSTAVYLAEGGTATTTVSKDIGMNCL

[2] = molecular target: T2, LRP6 (UniProt O88572 20-1613, limits assumed); experiment: proximity ligation assay in fibroblasts
T2 construct: whole, on cells
T2 sequence (O88572 20-1613 limits assumed): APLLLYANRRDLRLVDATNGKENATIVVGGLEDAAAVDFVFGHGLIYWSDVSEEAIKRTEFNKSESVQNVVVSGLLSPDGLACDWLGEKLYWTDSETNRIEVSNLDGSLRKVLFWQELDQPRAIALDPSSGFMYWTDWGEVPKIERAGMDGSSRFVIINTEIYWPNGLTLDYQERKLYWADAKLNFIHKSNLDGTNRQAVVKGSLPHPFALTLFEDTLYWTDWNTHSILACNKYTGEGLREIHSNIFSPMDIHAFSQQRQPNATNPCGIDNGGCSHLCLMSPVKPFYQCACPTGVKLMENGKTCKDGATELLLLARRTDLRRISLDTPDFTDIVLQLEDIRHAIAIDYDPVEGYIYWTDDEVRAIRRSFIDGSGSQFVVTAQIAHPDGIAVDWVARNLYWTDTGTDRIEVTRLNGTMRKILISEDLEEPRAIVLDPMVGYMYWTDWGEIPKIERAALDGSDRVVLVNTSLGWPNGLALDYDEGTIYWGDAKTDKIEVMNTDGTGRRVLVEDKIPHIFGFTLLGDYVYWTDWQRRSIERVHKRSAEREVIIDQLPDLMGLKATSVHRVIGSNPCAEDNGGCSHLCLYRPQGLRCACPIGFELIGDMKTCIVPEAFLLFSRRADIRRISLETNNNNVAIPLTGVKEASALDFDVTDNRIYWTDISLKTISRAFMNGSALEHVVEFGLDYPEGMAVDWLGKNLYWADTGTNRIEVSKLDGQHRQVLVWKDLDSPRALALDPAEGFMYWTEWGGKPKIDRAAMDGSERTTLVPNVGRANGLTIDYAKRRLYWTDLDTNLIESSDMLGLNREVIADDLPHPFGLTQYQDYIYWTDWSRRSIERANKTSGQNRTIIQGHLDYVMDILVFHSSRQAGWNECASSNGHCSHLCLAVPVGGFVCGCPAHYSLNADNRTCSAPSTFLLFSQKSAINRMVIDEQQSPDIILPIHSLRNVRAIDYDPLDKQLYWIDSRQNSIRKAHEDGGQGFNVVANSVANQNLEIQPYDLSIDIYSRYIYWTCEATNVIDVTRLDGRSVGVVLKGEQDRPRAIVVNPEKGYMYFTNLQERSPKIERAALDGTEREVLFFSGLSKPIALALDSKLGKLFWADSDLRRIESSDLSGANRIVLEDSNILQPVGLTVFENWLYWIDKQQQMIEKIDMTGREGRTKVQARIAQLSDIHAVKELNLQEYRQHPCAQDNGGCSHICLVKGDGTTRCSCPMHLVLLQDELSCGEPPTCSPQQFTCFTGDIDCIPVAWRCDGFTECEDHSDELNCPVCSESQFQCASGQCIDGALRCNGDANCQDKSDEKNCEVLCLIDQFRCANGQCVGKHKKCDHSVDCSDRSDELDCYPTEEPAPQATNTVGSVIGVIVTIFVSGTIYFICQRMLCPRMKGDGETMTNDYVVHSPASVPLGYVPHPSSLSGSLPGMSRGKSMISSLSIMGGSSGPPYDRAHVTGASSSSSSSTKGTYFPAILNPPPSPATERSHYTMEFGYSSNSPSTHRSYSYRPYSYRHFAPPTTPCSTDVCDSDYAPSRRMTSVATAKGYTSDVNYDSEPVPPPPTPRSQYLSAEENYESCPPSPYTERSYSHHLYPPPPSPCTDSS

[3] = molecular target: T3, BMPR2 on human breast cancer cells (PDX tumor cells, MDA-MB-231) (human, UniProt Q13873 27-1038); experiment: proximity ligation assay on sorted PDX cells
T3 construct: whole, on cells
T3 sequence (looked up): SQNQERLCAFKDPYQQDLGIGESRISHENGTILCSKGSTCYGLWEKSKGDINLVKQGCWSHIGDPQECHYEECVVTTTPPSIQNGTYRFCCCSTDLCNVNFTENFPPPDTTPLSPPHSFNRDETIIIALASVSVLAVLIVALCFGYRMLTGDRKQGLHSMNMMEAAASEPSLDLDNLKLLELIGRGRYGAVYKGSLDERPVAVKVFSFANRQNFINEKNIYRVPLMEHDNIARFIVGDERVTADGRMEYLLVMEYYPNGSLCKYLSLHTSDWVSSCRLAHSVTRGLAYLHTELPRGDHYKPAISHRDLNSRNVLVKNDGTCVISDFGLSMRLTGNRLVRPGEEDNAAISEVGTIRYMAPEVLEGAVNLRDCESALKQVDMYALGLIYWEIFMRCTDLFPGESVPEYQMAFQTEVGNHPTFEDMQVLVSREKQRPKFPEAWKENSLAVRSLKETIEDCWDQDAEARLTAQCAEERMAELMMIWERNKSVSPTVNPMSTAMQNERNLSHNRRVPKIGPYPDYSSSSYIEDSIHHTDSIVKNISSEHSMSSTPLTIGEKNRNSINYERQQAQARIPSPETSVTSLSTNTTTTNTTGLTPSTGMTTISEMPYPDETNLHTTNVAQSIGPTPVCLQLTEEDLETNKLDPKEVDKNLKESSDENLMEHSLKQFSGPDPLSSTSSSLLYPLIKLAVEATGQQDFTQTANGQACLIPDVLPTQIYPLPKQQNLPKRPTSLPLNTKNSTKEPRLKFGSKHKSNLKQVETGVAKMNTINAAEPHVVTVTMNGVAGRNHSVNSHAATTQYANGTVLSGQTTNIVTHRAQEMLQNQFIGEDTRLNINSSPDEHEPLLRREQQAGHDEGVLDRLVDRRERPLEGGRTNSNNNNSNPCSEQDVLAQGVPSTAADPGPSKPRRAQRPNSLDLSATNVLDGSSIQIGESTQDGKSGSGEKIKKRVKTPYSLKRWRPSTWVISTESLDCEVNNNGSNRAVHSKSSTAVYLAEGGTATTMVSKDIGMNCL

[4] = molecular target: T4, recombinant human LEFTY2 protein (R&D Systems, catalog number 746-LF-025) (human, UniProt O00292 78-366, limits assumed); experiment: ELISA, plate coated with 5 ug/ml protein, 5 ug/ml primary antibody, absorbance at 450 nm
T4 construct: also called Lefty R&D; rhLefty2 protein
T4 sequence (looked up): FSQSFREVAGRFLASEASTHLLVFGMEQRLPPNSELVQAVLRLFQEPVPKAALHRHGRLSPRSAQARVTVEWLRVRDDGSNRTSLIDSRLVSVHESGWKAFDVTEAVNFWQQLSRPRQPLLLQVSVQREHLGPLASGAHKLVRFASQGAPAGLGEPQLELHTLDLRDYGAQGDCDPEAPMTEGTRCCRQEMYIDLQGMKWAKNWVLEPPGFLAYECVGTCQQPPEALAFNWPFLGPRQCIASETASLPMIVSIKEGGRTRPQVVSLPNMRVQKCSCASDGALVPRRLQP

[5] = molecular target: T5, 1189 SCR1 (human LEFTY1-human Fc fusion protein) (human); experiment: as above
T5 construct: also called Lefty SCR; Lefty Scr
T5 chain: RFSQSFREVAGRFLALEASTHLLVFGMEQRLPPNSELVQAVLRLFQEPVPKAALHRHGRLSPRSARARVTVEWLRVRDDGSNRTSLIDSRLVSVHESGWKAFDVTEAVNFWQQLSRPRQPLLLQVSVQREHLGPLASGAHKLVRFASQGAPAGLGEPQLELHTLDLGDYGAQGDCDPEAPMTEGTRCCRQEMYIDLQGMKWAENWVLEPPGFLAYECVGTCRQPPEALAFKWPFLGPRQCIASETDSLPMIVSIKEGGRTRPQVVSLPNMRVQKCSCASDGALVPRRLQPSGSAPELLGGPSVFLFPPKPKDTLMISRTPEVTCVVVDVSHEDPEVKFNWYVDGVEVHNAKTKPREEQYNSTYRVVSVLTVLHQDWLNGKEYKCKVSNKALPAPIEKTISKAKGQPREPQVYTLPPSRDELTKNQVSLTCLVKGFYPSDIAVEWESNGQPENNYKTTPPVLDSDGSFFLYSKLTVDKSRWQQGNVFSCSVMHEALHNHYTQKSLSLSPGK

[6] = molecular target: T6, 1189 IMM (human LEFTY1-Rabbit Fc fusion protein) (human); experiment: as above
T6 construct: also called Lefty IMM; Lefty Imm
T6 chain: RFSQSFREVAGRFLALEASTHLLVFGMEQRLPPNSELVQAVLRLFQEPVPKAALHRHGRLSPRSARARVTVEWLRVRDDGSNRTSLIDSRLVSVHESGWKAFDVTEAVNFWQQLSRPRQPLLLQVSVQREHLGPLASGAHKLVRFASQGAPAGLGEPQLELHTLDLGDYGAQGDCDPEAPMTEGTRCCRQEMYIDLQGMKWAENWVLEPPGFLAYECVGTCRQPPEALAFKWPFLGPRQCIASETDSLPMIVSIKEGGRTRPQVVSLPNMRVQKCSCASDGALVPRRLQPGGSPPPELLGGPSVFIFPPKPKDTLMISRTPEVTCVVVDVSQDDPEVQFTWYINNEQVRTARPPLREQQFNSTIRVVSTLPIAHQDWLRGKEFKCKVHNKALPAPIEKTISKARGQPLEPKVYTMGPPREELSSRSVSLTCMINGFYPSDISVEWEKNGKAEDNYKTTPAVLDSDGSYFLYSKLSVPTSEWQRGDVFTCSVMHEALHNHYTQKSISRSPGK

[7] = molecular target: B4; experiment: competition ELISA: the peptide is added to the antibody on coated LEFTY proteins

B1
binding result [1]: binds
binding result [2]: no binding

B2
binding result [3]: binds

B3
binding result [1]: binds

B4
binding result [4]: binds
binding result [5]: binds
binding result [6]: binds

PMIVSVKEGGRTRPQVVSLPNMRVQT [Lefty1 peptide PMIVSVKEGGRTRPQVVSLPNMRVQT]
binding result [7]: binds
